Measurements from patent publication US20220402980A1 (OSPEDALE SAN RAFFAELE S R L, published 2022).
Where two headings read alike, the source gives them in different places. *1 amine or outer side, *2 acyl side, *3 side chain or, on linkers, in order; H or OH if unused. Bridges are numbered along the chain shown (N, C = ends). Where no end group is shown, it is not given here. [ ]: non-standard residue; d: D form. The star is where a group is joined. maleimide‑NOTA = 1,4,7-triazacyclononane-1,4-bis-acetic acid-7-maleimidoethylacetamide; Biotin = O=C1N[C@H]2[C@H](CS[C@H]2CCCCC(=O)*)N1; Lys(N3) = [N-]=[N+]=NCCCC[C@H](N)C(=O)O; βAsp = O=C(O)[C@H](CC(=O)[*:2])N[*:1]; hSer(lactone) = O=C1OCC[C@@H]1N*; Pra = C#CC[C@H](N)C(=O)O

Experiments:
[1] = biological target: T1, recombinant human αvβ6 extracellular domain (R&D Systems) (human, UniProt P06756 31-992; P18564 22-709); assay: competitive αvβ6 binding assay, isoDGR-HRP probe
T1 construct: extracellular domain; Bought; also called recombinant extracellular αvβ6; purified αvβ6

bovine serum albumin = biological target: T2, bovine serum albumin (bovine, UniProt P02769 25-607); assay: 2D-STD-1H-15N-HSQC NMR, negative control
T2 construct: Negative control in the STD NMR experiments; also called BSA

[2] = biological target: T1, recombinant human αvβ6 extracellular …; assay: STD NMR, 0.5 mM peptide with 4 µM αvβ6
[3] = biological target: T1, recombinant human αvβ6 extracellular …; assay: competitive binding assay on αvβ6-coated plates, isoDGR/STV-HRP probe
[4] = biological target: T3, wild-type human integrin αvβ5 (octyl β-D-glucopyranoside preparation) (human, UniProt P06756 31-1048; P18084 24-799); assay: competitive binding assay on αvβ5-coated plates, isoDGR/STV-HRP probe
T3 construct: From Immunological Sciences

[5] = biological target: T4, wild-type human integrin αvβ3 (octyl β-D-glucopyranoside preparation) (human, UniProt P06756 31-1048; P05106 27-788); assay: competitive binding assay on αvβ3-coated plates, isoDGR/STV-HRP probe
T4 construct: From Immunological Sciences

[6] = biological target: T5, αvβ8 integrin (purified, coated on microtiter plates) (UniProt P06756 31-992; P26012 43-684); assay: competitive binding assay on αvβ8-coated plates, isoDGR/STV-HRP probe
T5 construct: The Reagents section names no source for αvβ8; also called avs8

[7] = biological target: T1, recombinant human αvβ6 extracellular …; assay: competitive binding assay on αvβ6-coated plates, isoDGR/STV-HRP probe; remark: listed apart in the source
[8] = biological target: T6, wild-type human integrin α5β1 (octyl β-D-glucopyranoside preparation) (human, UniProt P08648 42-1049; P05556 21-798); assay: competitive binding assay on α5β1-coated plates, isoDGR/STV-HRP probe
T6 construct: From Immunological Sciences; also called a5p1; asp1

[9] = biological target: T5, αvβ8 integrin (purified, coated on …); assay: direct binding to integrin-coated microtiter plates, one site specific binding fit
[10] = biological target: T3, wild-type human integrin αvβ5 (octyl …); assay: as above
[11] = biological target: T6, wild-type human integrin α5β1 (octyl …); assay: as above
[12] = biological target: T4, wild-type human integrin αvβ3 (octyl …); assay: as above
[13] = biological target: T1, recombinant human αvβ6 extracellular …; assay: as above
[14] = biological target: T5, αvβ8 integrin (purified, coated on …); assay: direct binding to integrin-coated plates, near-infrared fluorescence
[15] = biological target: T1, recombinant human αvβ6 extracellular …; assay: as above

T5 sequence (P06756 31-992, chain 1 of 2): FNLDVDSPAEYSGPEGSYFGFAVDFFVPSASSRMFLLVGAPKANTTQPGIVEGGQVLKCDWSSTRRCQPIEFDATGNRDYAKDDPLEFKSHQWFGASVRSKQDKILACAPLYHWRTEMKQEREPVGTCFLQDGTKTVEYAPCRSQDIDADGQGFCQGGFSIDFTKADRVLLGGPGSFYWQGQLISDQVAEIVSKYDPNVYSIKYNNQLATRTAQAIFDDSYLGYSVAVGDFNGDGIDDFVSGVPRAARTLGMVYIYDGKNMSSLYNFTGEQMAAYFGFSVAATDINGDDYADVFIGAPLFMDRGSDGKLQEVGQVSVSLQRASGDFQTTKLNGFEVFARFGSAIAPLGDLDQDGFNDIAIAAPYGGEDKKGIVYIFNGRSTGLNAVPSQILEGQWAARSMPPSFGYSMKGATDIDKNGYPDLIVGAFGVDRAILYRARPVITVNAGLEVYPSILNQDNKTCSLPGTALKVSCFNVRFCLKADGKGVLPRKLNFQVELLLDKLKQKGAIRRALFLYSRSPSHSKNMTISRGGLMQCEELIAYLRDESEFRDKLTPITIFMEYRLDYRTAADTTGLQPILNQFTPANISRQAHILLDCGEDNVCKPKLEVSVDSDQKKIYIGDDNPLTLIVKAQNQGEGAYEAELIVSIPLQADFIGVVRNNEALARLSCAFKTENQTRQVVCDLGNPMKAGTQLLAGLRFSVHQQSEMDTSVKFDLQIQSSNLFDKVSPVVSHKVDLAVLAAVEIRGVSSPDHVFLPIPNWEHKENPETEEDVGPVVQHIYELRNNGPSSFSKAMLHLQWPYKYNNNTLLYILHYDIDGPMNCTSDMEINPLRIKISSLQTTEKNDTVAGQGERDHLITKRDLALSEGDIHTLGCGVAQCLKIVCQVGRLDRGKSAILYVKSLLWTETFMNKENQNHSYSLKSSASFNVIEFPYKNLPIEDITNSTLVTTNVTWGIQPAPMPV
T5 sequence (P26012 43-684, chain 2 of 2): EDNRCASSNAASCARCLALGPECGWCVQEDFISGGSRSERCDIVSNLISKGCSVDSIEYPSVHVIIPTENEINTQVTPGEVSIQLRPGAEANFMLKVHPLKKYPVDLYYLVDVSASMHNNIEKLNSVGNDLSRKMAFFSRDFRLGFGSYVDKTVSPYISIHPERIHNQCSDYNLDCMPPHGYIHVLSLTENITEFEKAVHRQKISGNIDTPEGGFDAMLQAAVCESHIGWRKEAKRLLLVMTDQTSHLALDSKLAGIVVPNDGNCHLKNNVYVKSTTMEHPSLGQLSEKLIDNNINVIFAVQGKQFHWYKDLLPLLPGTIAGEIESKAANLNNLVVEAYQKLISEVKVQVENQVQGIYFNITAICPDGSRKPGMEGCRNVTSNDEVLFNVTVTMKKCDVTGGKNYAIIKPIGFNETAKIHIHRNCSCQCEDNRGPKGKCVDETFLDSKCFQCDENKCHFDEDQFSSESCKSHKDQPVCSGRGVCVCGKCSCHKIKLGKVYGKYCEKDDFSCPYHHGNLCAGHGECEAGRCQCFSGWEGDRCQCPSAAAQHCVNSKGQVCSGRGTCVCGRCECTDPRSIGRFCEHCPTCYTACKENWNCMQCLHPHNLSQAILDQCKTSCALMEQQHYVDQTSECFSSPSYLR
T1 sequence (P06756 31-992, chain 1 of 2): as the sequence (P06756 31-992, chain 1 of 2) above
T1 sequence (P18564 22-709, chain 2 of 2): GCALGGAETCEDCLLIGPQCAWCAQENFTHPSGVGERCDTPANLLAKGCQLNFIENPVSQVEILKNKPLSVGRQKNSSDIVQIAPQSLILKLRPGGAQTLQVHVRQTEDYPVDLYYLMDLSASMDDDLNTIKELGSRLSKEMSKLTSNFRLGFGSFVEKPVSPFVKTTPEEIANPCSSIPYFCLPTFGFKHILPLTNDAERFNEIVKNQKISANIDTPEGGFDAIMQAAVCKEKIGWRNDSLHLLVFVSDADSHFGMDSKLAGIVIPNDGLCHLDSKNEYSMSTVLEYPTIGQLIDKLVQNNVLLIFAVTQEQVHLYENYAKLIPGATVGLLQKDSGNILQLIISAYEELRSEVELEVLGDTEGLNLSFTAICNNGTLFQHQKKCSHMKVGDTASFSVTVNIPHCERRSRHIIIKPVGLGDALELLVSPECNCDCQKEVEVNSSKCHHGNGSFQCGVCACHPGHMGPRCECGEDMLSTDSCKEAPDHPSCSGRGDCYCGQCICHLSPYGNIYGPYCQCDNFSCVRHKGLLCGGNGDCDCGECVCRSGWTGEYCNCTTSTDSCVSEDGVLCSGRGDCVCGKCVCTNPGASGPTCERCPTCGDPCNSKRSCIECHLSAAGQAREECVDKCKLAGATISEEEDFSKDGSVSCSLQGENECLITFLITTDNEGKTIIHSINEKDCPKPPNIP
T3 sequence (P06756 31-1048, chain 1 of 2): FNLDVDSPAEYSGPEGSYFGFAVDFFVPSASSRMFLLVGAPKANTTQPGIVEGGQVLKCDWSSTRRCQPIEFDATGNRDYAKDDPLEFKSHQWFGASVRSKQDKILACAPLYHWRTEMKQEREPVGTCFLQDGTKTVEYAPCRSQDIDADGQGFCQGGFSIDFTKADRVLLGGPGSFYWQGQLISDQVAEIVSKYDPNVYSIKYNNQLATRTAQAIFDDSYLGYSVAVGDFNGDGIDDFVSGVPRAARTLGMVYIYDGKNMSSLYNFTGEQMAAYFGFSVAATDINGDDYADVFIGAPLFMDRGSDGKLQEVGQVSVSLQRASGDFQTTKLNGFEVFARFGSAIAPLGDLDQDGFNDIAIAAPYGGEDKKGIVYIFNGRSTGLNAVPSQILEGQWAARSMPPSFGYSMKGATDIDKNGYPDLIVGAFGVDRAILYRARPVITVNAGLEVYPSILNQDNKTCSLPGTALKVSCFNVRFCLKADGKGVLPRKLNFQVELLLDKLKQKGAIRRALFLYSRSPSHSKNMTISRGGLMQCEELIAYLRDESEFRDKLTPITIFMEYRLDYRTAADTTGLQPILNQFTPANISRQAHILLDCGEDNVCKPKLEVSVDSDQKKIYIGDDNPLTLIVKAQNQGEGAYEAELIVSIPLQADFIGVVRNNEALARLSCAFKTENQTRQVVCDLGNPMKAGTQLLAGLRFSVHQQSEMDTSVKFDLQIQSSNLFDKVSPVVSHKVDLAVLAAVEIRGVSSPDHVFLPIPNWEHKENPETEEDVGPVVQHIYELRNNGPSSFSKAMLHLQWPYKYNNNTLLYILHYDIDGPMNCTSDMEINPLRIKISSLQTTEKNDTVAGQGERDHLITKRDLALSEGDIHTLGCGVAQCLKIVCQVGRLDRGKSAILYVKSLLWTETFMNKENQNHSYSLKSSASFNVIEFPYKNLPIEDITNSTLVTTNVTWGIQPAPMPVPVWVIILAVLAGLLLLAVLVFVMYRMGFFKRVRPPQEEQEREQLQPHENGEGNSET
T3 sequence (P18084 24-799, chain 2 of 2): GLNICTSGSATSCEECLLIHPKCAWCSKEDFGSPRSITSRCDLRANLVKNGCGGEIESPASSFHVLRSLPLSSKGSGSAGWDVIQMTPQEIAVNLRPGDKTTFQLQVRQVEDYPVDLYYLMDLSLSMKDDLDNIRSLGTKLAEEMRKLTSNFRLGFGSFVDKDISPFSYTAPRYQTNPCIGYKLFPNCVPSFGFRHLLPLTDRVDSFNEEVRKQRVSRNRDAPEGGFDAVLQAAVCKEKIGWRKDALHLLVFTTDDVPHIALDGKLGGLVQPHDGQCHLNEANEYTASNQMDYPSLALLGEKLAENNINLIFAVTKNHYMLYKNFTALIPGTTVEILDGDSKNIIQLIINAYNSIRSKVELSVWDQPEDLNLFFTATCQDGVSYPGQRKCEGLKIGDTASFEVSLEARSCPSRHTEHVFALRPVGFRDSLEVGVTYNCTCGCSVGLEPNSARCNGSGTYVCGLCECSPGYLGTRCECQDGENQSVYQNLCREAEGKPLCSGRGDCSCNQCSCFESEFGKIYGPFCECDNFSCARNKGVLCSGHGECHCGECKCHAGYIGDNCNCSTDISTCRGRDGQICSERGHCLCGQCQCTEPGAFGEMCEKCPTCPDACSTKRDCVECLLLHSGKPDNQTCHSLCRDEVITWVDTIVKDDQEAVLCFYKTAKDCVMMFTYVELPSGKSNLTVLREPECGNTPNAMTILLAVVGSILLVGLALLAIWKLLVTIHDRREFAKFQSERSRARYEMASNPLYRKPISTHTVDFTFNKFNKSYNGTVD
T4 sequence (P06756 31-1048, chain 1 of 2): as the sequence (P06756 31-1048, chain 1 of 2) above
T4 sequence (P05106 27-788, chain 2 of 2): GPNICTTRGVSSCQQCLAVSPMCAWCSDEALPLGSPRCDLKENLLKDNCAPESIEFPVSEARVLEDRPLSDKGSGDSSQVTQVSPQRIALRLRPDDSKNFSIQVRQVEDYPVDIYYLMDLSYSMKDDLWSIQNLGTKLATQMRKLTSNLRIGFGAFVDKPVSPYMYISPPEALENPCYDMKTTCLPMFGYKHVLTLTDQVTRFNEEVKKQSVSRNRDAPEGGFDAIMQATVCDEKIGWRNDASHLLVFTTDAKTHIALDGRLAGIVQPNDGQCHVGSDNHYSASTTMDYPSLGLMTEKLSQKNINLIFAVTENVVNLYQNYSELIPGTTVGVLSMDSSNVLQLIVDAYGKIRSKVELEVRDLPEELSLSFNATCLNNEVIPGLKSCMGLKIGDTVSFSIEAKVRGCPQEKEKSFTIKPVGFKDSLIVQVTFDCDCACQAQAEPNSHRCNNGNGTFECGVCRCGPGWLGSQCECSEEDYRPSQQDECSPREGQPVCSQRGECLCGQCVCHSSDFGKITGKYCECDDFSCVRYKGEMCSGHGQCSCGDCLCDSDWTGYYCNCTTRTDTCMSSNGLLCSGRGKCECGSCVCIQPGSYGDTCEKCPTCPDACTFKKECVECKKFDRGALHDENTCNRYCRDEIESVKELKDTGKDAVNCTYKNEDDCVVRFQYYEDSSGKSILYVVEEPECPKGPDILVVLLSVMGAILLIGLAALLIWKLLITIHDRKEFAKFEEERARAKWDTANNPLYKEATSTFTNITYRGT

C(maleimide‑NOTA)FETLRGEERILSILRHQNLLKELQD (Negative control conjugate) [NOTA-2a (peptide 2a coupled to maleimide-NOTA)]
binding result [1]: no binding

B1: recombinant 13C/15N peptide 1 (peptide)
peptide: FETLRGDERILSILRHQNLLKELQD-{hSer(lactone)}
modifications: also: 13C/15N isotope labelled
notes: Used in the 2D-STD NMR experiments; also called recombinant peptide 1; 15N labelled peptide 1
binding result (bovine serum albumin): no binding
binding result [2]: binds

CFETLRGDLRILSILR[Pra]QNL[Lys(N3)]KELQD-NH2 (triazole 17-21, also called CgA38-63-derived peptide) [peptide 5a]
Ki [3]: 1.5 nM

B2: peptide 3 (peptide)
peptide: FETLRGDERILSILR-NH2
notes: Made by Fmoc-SPPS on a Rink-amide resin; also called compound 3
Ki [4]: 2040 nM
Ki [5]: 1250 nM
Ki [6]: 31200 nM
Ki [7]: 277 nM
Ki [8]: 10100 nM

B3: peptide 1 (CgA-derived peptide, residues 39-63), synthetic (peptide)
peptide: FETLRGDERILSILRHQNLLKELQD
notes: Synthetic peptide bought from Biomatik; no terminal modification is stated for it; also called compound 1
Ki [4]: 3600 nM
Ki [5]: 2190 nM
Ki [6]: 7660 nM
Ki [7]: 15.5 nM
Ki [8]: 9210 nM

Ac-C[βAsp]GRCGVRSSSRTPSDK(Biotin)Y (also: in complex with streptavidin-peroxidase conjugate)
Kd [9]: 1.6 nM
Kd [10]: 1.7 nM
Kd [11]: 1.3 nM
Kd [12]: 1.3 nM
Kd [13]: 1.4 nM

C(maleimide‑IRDye 800CW)FETLRGEERILSILRHQNLLKELQD (RGE control conjugate) [2a-IRDye (peptide 2a coupled via Cys to maleimide-IRDye 800CW)]
binding result [14]: no binding (tested: range 0.01-100 nM)
binding result [15]: no binding (tested: range 0.01-100 nM)
